Measurements taken from patent US20170355769A1 (AbbVie / Abbott, published 2017).

T1: Human full length B7-H3 (human, UniProt Q5ZPR3 29-534)
T1 sequence: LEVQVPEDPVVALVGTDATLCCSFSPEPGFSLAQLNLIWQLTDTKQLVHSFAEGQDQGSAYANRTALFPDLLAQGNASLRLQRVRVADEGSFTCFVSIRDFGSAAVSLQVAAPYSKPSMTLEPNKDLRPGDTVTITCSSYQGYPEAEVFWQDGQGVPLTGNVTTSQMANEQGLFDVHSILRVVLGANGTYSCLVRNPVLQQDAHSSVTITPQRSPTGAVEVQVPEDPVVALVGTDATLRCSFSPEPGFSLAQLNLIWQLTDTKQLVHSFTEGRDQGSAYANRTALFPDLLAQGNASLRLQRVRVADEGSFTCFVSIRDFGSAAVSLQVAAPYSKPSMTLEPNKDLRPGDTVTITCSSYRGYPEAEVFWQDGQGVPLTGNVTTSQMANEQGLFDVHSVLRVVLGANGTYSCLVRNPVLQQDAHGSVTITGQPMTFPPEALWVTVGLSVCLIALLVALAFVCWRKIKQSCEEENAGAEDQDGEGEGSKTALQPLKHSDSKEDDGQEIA

T2: hB7-H3 (ELISA antigen of Tables 17 and 20) (human, UniProt Q5ZPR3 29-466, limits assumed)
T2 sequence: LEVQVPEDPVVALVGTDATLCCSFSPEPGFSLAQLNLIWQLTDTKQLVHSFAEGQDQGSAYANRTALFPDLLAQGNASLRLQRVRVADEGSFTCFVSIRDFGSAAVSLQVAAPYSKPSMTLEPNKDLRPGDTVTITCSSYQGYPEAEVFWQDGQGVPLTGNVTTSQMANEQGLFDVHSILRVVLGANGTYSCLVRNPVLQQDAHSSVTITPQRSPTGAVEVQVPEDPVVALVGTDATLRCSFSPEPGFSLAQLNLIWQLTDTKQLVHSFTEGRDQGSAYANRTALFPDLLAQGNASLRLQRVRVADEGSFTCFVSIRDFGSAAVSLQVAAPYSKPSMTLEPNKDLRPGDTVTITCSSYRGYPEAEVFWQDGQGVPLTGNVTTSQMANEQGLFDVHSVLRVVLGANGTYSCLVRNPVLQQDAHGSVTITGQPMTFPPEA

T3: Human B7-H3-ECD (His tag) (human, UniProt Q5ZPR3 29-461)
T3 construct: SPR analyte; also called huB7-H3; soluble ECD of human B7-H3
T3 sequence: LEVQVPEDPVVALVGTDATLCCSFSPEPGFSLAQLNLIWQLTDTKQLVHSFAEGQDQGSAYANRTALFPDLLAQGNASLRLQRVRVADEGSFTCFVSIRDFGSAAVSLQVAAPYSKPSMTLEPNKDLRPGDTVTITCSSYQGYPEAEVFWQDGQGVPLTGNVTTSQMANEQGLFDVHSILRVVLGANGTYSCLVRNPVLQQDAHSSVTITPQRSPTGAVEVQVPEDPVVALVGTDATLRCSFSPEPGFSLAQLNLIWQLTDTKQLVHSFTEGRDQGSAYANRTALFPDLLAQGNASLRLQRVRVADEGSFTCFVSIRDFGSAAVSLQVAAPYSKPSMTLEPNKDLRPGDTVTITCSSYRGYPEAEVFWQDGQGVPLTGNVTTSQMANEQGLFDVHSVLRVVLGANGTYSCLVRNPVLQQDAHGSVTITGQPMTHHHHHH

B1: huAb3v2.5-CZ (antibody, human IgG1, kappa, L234A L235A, V domains shown)
VH: EVQLVQSGAEVKKPGSSVKVSCKASGYTFSSYWMHWVRQAPGQGLEWIGLIHPESGSTNYNEMFKNRATLTVDRSTSTAYMELSSLRSEDTAVYYCAGGGRLYFDYWGQGTTVTVSS
VL: DIVMTQSPLSLPVTPGEPASISCRSSQSLVHSNRDTYLRWYLQKPGQSPQLLIYKVSNRFSGVPDRFSGSGSGTDFTLKISRVEAEDVGVYYCSQSTHVPYTFGGGTKVEIKR
modifications: synthon CZ on reduced interchain Cys
B2: chAb3 (antibody, IgG1, V domains shown)
VH: QVQLQQPGAELVKPGASVKLSCKASGYTFSSYWMHWVKQRPGQGLEWIGLIHPDSGSTNYNEMFKNKATLTVDRSSSTAYVQLSSLTSEDSAVYFCAGGGRLYFDYWGQGTTLTVSS
VL: DVVMTQTPLSLPVSLGDQASISCRSSQSLVHSNGDTYLRWYLQKPGQSPKLLIYKVSNRFSGVPDRFSGSGSGTDFTLKITRVEAEDLGVYFCSQSTHVPYTFGGGTKLEIK
notes: chimeric, huIgG1/k
B3: chAb3-CZ (antibody, IgG1, V domains shown)
VH: QVQLQQPGAELVKPGASVKLSCKASGYTFSSYWMHWVKQRPGQGLEWIGLIHPDSGSTNYNEMFKNKATLTVDRSSSTAYVQLSSLTSEDSAVYFCAGGGRLYFDYWGQGTTLTVSS
VL: DVVMTQTPLSLPVSLGDQASISCRSSQSLVHSNGDTYLRWYLQKPGQSPKLLIYKVSNRFSGVPDRFSGSGSGTDFTLKITRVEAEDLGVYFCSQSTHVPYTFGGGTKLEIK
modifications: synthon CZ on reduced interchain Cys
B4: huAb3v1-CZ (antibody, V domains shown)
VH: EVQLVQSGAEVKKPGSSVKVSCKASGYTFSSYWMHWVRQAPGQGLEWMGLIHPDSGSTNYNEMFKNRVTITADKSTSTAYMELSSLRSEDTAVYYCARGGRLYFDYWGQGTTVTVSS
VL: DIVMTQSPLSLPVTPGEPASISCRSSQSLVHSNGDTYLRWYLQKPGQSPQLLIYKVSNRFSGVPDRFSGSGSGTDFTLKISRVEAEDVGVYYCSQSTHVPYTFGGGTKVEIK
modifications: synthon CZ on reduced interchain Cys
notes: ADC, DAR 3.6
B5: huAb3v2.3-CZ (antibody, V domains shown)
VH: EVQLVQSGAEVKKPGSSVKVSCKASGYTFSSYWMHWVRQAPGQGLEWIGLIHPWSGSTNYNEMFKNRATLTVDRSTSTAYMELSSLRSEDTAVYYCAGGGRLYFDYWGQGTTVTVSS
VL: DIVMTQSPLSLPVTPGEPASISCRSSQSLVHSNQDTYLRWYLQKPGQSPQLLIYKVSNRFSGVPDRFSGSGSGTDFTLKISRVEAEDVGVYYCSQSTHVPYTFGGGTKVEIK
modifications: synthon CZ on reduced interchain Cys
notes: ADC, DAR 1.1
B6: huAb3v2.8-CZ (antibody, V domains shown)
VH: EVQLVQSGAEVKKPGSSVKVSCKASGYTFSSYWMHWVRQAPGQGLEWIGLIHPISGSTNYNEMFKNRATLTVDRSTSTAYMELSSLRSEDTAVYYCAGGGRLYFDYWGQGTTVTVSS
VL: DIVMTQSPLSLPVTPGEPASISCRSSQSLVHSNRDTYLRWYLQKPGQSPQLLIYKVSNRFSGVPDRFSGSGSGTDFTLKISRVEAEDVGVYYCSQSTHVPYTFGGGTKVEIK
modifications: synthon CZ on reduced interchain Cys
notes: ADC, DAR 2.0
B7: huAb3v3-CZ (antibody, V domains shown)
VH: EVQLVQSGAEVKKPGSSVKVSCKASGYTFSSYWMHWVRQAPGQGLEWIGLIHPDSGSTNYNEMFKNRATLTVDRSTSTAYVELSSLRSEDTAVYFCAGGGRLYFDYWGQGTTVTVSS
VL: DVVMTQSPLSLPVTPGEPASISCRSSQSLVHSNGDTYLRWYLQKPGQSPQLLIYKVSNRFSGVPDRFSGSGSGTDFTLKISRVEAEDVGVYFCSQSTHVPYTFGGGTKVEIK
modifications: synthon CZ on reduced interchain Cys
notes: ADC, DAR 3.6
B8: huAb3v5-CZ (antibody, V domains shown)
VH: EVQLVQSGAEVKKPGSSVKVSCKASGYTFSSYWMHWVRQAPGQGLEWIGLIHPDSGSTNYNEMFKNRATLTVDRSTSTAYMELSSLRSEDTAVYYCAGGGRLYFDYWGQGTTVTVSS
VL: DVVMTQSPLSLPVTPGEPASISCRSSQSLVHSNGDTYLRWYLQKPGQSPQLLIYKVSNRFSGVPDRFSGSGSGTDFTLKISRVEAEDVGVYYCSQSTHVPYTFGGGTKVEIK
modifications: synthon CZ on reduced interchain Cys
notes: ADC, DAR 3.1
B9: huAb3v6-CZ (antibody, V domains shown)
VH: EVQLVQSGAEVKKPGSSVKVSCKASGYTFSSYWMHWVRQAPGQGLEWIGLIHPDSGSTNYNEMFKNRATLTVDRSTSTAYVELSSLRSEDTAVYFCAGGGRLYFDYWGQGTTVTVSS
VL: DVVMTQSPLSLPVTPGEPASISCRSSQSLVHSNGDTYLRWYLQKPGQSPQLLIYKVSNRFSGVPDRFSGSGSGTDFTLKISRVEAEDVGVYYCSQSTHVPYTFGGGTKVEIK
modifications: synthon CZ on reduced interchain Cys
notes: ADC, DAR 3.3
B10: huAb3v2.2-CZ (antibody, V domains shown)
VH: EVQLVQSGAEVKKPGSSVKVSCKASGYTFSSYWMHWVRQAPGQGLEWIGLIHPWSGSTNYNEMFKNRATLTVDRSTSTAYMELSSLRSEDTAVYYCAGGGRLYFDYWGQGTTVTVSS
VL: DIVMTQSPLSLPVTPGEPASISCRSSQSLVHSNRDTYLRWYLQKPGQSPQLLIYKVSNRFSGVPDRFSGSGSGTDFTLKISRVEAEDVGVYYCSQSTHVPYTFGGGTKVEIK
modifications: synthon CZ on reduced interchain Cys
notes: ADC, DAR 0.7

What was measured:
Human full length B7-H3 [1] = target: T1, Human full length B7-H3; assay: cell-based or functional assay
[2] = target: T4, Cynomolgous B7-H3 on cells (cynomolgus); assay: FACS, 3T12 transfectants
T4 construct: whole, on cells; also called cyB7-H3; cyno B7-H3

[3] = target: T2, hB7-H3 (ELISA antigen of Tables 17 and …); assay: ELISA
[4] = target: T3, Human B7-H3-ECD (His tag); assay: SPR Biacore, naked mAb
Description: Biacore T200 SPR instruments were used to measure the binding kinetics of human B7-H3 (analyte) binding to various mAbs (ligands). The assay format was Fc-based capture via immobilized anti-mouse (Fc) (Pierce 31170) or immobilized anti-human (Fc) (Pierce 31125). A standard amine coupling protocol was employed to immobilize the capture reagents via primary amines to the carboxy-methyl (CM) dextran surface of CM5 sensorchips (Biacore); capture antibodies were coupled to a level of approximately 5000RU. For binding kinetic measurements the assay buffer was HBS-EP+ (Biacore): 10 mM Hepes, pH7.4, 150 mM NaCl, 3 mM EDTA, 0.05% polysorbate 20. During the assay, all measurements were referenced against the capture surface alone. Each assay cycle consisted of the following steps: 1) Capture of ligand to approximately 50RU; 2) Analyte injection over both reference and test surface, 240 μL at 80 μL/min, after which the dissociation was monitored for 900 seconds at 80 μL/min; 3) Regeneration of capture surface with low pH glycine. […] Data were processed and fit to a 1:1 binding model using Biacore T200 Evaluation Software to determine the binding kinetic rate constants, kₐ (on-rate) and kd (off-rate), and the equilibrium dissociation constant (affinity, KD).
(§1) These variants were further characterized for binding by SPR and as ADCs conjugated to the Bcl-xL inhibitor synthon (linker warhead) CZ. […] An ADC comprising chAb3 conjugated to synthon CZ was used as a control.

Human full length B7-H3 [5] = target: T1, Human full length B7-H3; assay: FACS, NCI-H1650 cells
Procedure: To generate purified chimeric antibodies, expression vectors were transiently transfected into HEK293 6E suspension cell cultures in a ratio of 60% to 40% light to heavy chain construct. 1 mg/ml of polyethylenimine (PEI) or 2.6 μL/mL of Expifectamine was used to transfect the cells. Cell supernatants were harvested after five days in shaking flasks, spun down to pellet cells, and filtered through 0.22 μm filters to separate IgG from culture contaminants. Antibody-containing supernatants were purified on Akta Pure using protein A mAb SelectSure. Columns were equilibrated in PBS pH 7.4, supernatants were then passed through the column and a wash was performed with PBS pH 7.4. IgG were eluted with 0.1 M acetic acid pH 3.5 and collected in several aliquots. Fractions containing IgG were pooled and dialyzed in PBS overnight at 4° C.
(§2) Cells were harvested from flasks when approximately 80% confluent using Gibco® Cell Dissociation Buffer. Cells were washed once in PBS/1% FBS (FACS buffer) then resuspended at 2.5×10⁶ cells/mL in FACS buffer. 100 μL of cells/well were added to a round bottom 96-well plate. 10 μL of a 10× concentration of mAb/ADC (final concentrations are indicated the figures). Wells were washed twice with FACS buffer and resuspended in 50 μL of secondary Ab (AlexaFluor 488) diluted in FACS buffer. The plate was incubated at 4° C. for one hour and washed twice with FACS buffer. Cells were resuspended in 100 μL of PBS/1% formaldehyde and analyzed on a Becton Dickinson LSRII flow cytometer. Data was analyzed using WinList flow cytometry analysis software.

Human full length B7-H3 [6] = target: T1, Human full length B7-H3; assay: FACS, cell surface human B7-H3 (as Example 6)
Procedure: as §2
Nine anti-B7-H3 chimeric antibodies were conjugated to the Bcl-xL inhibiting (Bcl-xLi) synthon CZ (Example 2.1) using conjugation Method A described below. The resulting ADCs (anti-B7-H3 antibodies conjugated to synthon CZ) were tested for binding to cell surface human B7-H3 by FACS (as described in Example 6) and for cell cytotoxicity in cell lines expressing B7-H3. […] Table 6 provides cell surface binding and cytotoxicity activity of anti-B7-H3 chimera ADCs against breast cancer cell HCC38 expressing human B7-H3.

Human full length B7-H3 [7] = target: T1, Human full length B7-H3; assay: FACS (Example 6 method)
Procedure: as §2, §1

Human full length B7-H3 [8] = target: T1, Human full length B7-H3; assay: FACS, 3T12 transfectants

| Binder | EC50 [2] | EC50 [3] | EC50 (Human full length B7-H3 [7]) | EC50 (Human full length B7-H3 [8]) | further results |
| --- | --- | --- | --- | --- | --- |
| B1 | 4.86 nM | 0.13 nM | – | – | EC50 nM H1650 (tumor cell cytotoxicity) (Human full length B7-H3 [1]): 0.4 nM |
| B2 | – | – | – | – | Kd [4]: 19 nM; EC50 (Human full length B7-H3 [5]): 0.61 nM |
| B3 | – | – | 0.61 nM | – | EC50 (Human full length B7-H3 [6]): 0.65 nM |
| B4 | – | – | 1.45 nM | – | – |
| B5 | 4.03 nM | 0.11 nM | – | 6.5 nM | – |
| B6 | 3.01 nM | 0.14 nM | – | 3.94 nM | – |
| B7 | – | – | 1.68 nM | – | – |
| B8 | – | – | 0.85 nM | – | – |
| B9 | – | – | 1.78 nM | – | – |
| B10 | 3.68 nM | 0.1 nM | – | 5.29 nM | – |
